Patent US11685791B2, “Antibody binding specifically to N-terminal region of lysyl-tRNA synthetase exposed on cell membrane” (Zymedi Co., Ltd., priority 2017, dated 2023)

How the values were obtained:
[1] = tested on: monocyte/macrophage infiltration into lung tissues (CD68); assay: IHC staining of CD68 in lung tissues of PAH model; format: in vivo, rat; details: PAH rats, 1 mpk or 10 mpk, 3 weeks
Procedure: The collected lungs were fixed in paraformaldehyde (PFA) according to the ordinary procedure, and then paraffin-infiltrated and embedded through washing, dehydration, and clearing. The rat lung tissue paraffin blocks were micro-sectioned to a thickness of 6 μm, and slides were manufactured. Thereafter, staining was performed as below. The sample was first treated with xylene for 5 min three times, treated with 100% ethanol, 95% ethanol, 90% ethanol, and 70% ethanol, and DW in that order for 2 min, and washed with PBS for 5 min. After 0.3% H2O2 treatment, the sample was washed with PBS for 5 min twice. The sample was immersed in 0.01 M citrate buffer, heated, and washed with PBS-T (0.03% Tween 20). Thereafter, the sample was blocked (2% BSA & 2% goat serum in PBS) at room temperature for 30 min. The sample was stained with anti-CD68 antibody (1:200, ED1 clone, Abcam) at 4° C. overnight. The sample was washed with PBS-T for 5 min three times, and then treated with polymer-HRP anti-mouse envision kit (DAKO) at 4° C. for 1 h. The sample was washed with PBS-T three times, and then color-developed by the treatment with DAB substrate buffer and DAB chromogen 20. The stained tissue was treated with Mayer's hematoxylin (Sigma) for 1 min, and then treated with 70% ethanol, 90% ethanol, 95% ethanol, and 100% ethanol in that order for 2 min each twice. […]

KRS = target: T1, KRS (Homo sapiens, UniProt Q15046); assay: Western blotting and immunoprecipitation of converted IgGs; format: binding; details: HCT116 cell lysate
T1 construct: endogenous in cells; host or cells: HCT116
T1 sequence (Q15046 whole entry): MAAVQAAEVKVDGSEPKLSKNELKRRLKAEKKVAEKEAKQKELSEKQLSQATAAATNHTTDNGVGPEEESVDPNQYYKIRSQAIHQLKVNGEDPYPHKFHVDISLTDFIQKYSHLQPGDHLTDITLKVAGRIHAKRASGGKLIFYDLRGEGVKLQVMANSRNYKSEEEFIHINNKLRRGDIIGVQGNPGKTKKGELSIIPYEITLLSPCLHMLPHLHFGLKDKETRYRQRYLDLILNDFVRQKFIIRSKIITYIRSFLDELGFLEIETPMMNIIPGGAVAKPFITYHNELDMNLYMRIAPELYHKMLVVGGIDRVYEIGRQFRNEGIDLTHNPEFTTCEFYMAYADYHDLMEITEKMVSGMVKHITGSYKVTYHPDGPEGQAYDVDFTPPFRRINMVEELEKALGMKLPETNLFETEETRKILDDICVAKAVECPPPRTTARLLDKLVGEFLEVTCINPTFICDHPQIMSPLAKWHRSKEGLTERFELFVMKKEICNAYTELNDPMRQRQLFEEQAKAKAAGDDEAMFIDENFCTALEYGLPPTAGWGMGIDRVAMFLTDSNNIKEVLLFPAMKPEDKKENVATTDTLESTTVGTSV

[2] = tested on: rat KRS N-terminal peptide fragments (rF1-rF5); assay: SPR (Biacore T200) of immobilized N3 IgG against rat KRS N-terminal peptide fragments; format: binding
Procedure: (§1) In the same manner as the experimental method described in Example 4-1 above, N3 IgG antibody was immobilized on the chip by using an amine coupling kit (GE Healthcare). Then, the peptides shown in Table 4 above dissolved in PBS solution at corresponding concentrations were allowed to flow for 60 s, and PBS was allowed to flow for 5 min. Then, the binding ability was analyzed by Biacore T200 Evaluation software v2.0 (GE Healthcare).

[3] = tested on: KRS level in the monocyte/macrophage cell membrane (RAW 264.7 cells); assay: Western blotting of KRS in membrane and cytosol fractions after LN421 treatment; format: cell-based; details: 100 nM, 24 h, laminin 421 1 μg/ml
Procedure: RAW 264.7 cells (2×10^6 cell) were incubated for 18 hr, treated with 1 μg/ml of each laminin subtype in serum-free DMEM, and then harvested at 0 h, 12 h, and 24 h. RAW 264.7 cell protein was separated into cytosol and membrane fractions by using the ProteoExtract Subcellular Proteome Extraction Kit (Calbiotech, cat #539790). The obtained protein was electrophoresed, transferred onto PVDF membrane (Milipore), and blocked with 3% skim milk. Thereafter, KRS polyclonal antibody (rabbit, Neomics, Co. Ltd. #NMS-01-0005) was added, followed by incubation for 1 h. After the unbound antibodies were washed out, anti-rabbit secondary antibodies (ThermoFisher Scientific, #31460) were added, followed by incubation. After incubation with the secondary antibodies, film sensitization was carried out using ECL reagent as a substrate in a dark room. The sensitized bands were compared with standard molecule markers to identify bands corresponding to KRS sizes. Na+/K+ ATPase (Abcam) and tubulin (Sigma) antibody were used for plasma membrane and cytosol marker identification, respectively. RAW 264.7 cells were treated with laminin 421 (1 μg/ml) and antibody (100 nM), incubated for 24 h, and harvested. […]

[4] = tested on: pulmonary arterial hypertension (PAH) models; assay: Echocardiography in PAH model; format: in vivo, rat; details: MCT PAH rats, five animals per group
Excerpt: To induce PAH in seven-week-old SD rats (Orient Bio), 60 mpk of monocrotaline (MCT) was subcutaneously injected. […] All antibodies were i.v. injected twice a week, and sildenafil was orally administered every day.

KRS 1-207 aa = target: T2, KRS 1-207 aa (Homo sapiens, UniProt Q15046); assay: SPR (Biacore 2000) binding of IgGs to immobilized KRS; details: immobilized KRS 185 RU, antibody 6.25-100 nM
T2 construct: to the antigen (KRS 1-207 aa)
T2 sequence (Q15046 1-207): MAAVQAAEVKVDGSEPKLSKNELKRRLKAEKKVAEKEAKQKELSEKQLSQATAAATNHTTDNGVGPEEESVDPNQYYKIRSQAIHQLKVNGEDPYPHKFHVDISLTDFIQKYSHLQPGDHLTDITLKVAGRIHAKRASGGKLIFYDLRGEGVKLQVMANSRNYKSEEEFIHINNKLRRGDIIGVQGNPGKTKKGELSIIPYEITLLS
Procedure: The quantitative binding ability of the purified antibody proteins (N3 IgG and N5 IgG) to the antigen (KRS 1-207 aa) were measured using Biacore 2000 SPR (surface plasmon resonance) (GE healthcare, US) biosensor. After KRS was immobilized on a sensor chip (CM5, GE healthcare, US), antibody proteins (6.25-100 nM), which were serially diluted with HES buffer solution (10 mM HEPES, pH 7.4, 150 mM NaCl, 3 mM EDTA, 0.005% surfactant P20), were allowed to flow at a rate of 30 μl/min for 3 min, and 1 M NaCl/20 mM NaOH was allowed to flow at a rate of 30 μl/min for 3 min, thereby inducing the dissociation of proteins bound to the antigen. Mock IgG was used as control. Specific experiment conditions are as follows:
Immobilized level: 185 RU
Antibody: N3 IgG and N5 IgG
Running buffer: HBS-N buffer
Regeneration: 2 M NaCl, 20 mM NaOH (flow 30 ul/min 1 min)
The affinity was obtained from the kinetic rate constants (ka and kd) and equilibrium dissociation constants (KD) by using BIA evaluation ver. 3.2 software. FIGS. 6A-6B show SPR graph results of N3 IgG and N5 IgG, respectively. It was confirmed from FIGS. 6A-6B and Table 3 that N3 IgG and N5 IgG of the present invention has high specific binding ability to the KRS N-terminal region.

[5] = tested on: mouse KRS N-terminal peptide fragments (mF1-mF5); assay: SPR (Biacore T200) of immobilized N3 IgG against mouse KRS N-terminal peptide fragments; format: binding
Procedure: as §1

A549 cells = assay: MTT cytotoxicity assay; format: cell-based, human; details: 0, 50, 100, 500 nM, 24 h, serum-free media
Procedure: MTT assay was performed on N3 IgG as a representative. A549 cells were seeded in 96-well plates (5,000 cell/well) and incubated. The cells were washed with serum-free media, and then treated with human mock IgG and N3 IgG of 0, 50, 100, 500 nM (in serum-free media). After 24-h incubation, MTT solution was added with 50 μg/well, followed by incubation for 4 h. After MTT solution was removed, the wells were treated with 100 ul of DMSO, and then the absorbance was measured at 570 nm.

KRS binding ability (western blotting and immunoprecipitation) (KRS): bound to KRS
Kd (KRS 1-207 aa): 83.4 nM
ka (KRS 1-207 aa): 109000 M⁻¹ s⁻¹
kd (KRS 1-207 aa): 0.009055 s⁻¹
B1: N3 IgG: IgG converted from N3 scFv; VH SEQ ID NO: 49, VL SEQ ID NO: 51; binds KRS N-terminal region (antibody, V domains shown)
VH: EVQLLESGGGLVQPGGSLRLSCAASGFTFSSYDMSWVRQAPGKGLEWVSAISYDNGNTYYADSVKGRFTISRDNSKNTLYLQMNSLRAEDTAVYYSARMALDFDYWGQGTLVTVSS
VL: QSVLTQPPSASGTPGQRVTISCTGSSSNIGSNYVTWYQQLPGTAPKLLIYDNSNRPSGVPDRFSGSKSGTSASLAISGLRSEDEADYYCASWDDSLSAYVFGGGTKLTVL
monocyte/macrophage infiltration into lung tissues (CD68 IHC) [1]: explicitly reduced
relative binding ability, epitope F3 vs F1 (rat) [2]: stronger binding ability to epitope F3 than F1
binding to rat KRS N-terminal epitopes F1-F5 (SPR) ([2]; F2 and F4 data not shown): bound to epitopes F1, F2, F3, and F4 of human (h), mouse (m), and rat (r) but not epitope F5
KRS level in the cell membrane [3]: effectively reduced
D-shaped left ventricle finding indicating pressure overload in the right ventricle [4]: not observed
relative binding ability, epitope F3 vs F1 (mouse) [5]: stronger binding ability to epitope F3 than F1
binding to mouse KRS N-terminal epitopes F1-F5 (SPR) ([5]; F2 and F4 data not shown): bound to epitopes F1, F2, F3, and F4 of human (h), mouse (m), and rat (r) but not epitope F5
cytotoxicity (MTT assay) (A549 cells): no cytotoxicity
